Data reported in the DeepSol protein solubility set.

Test: soluble on expression in E. coli; label from the status in PepcDB or PDB records

Row | Sequence | soluble on expression in E. coli
1 | MGSDKIHHHHHHMGDLTADVLVIGGGTAGFGAAVAAGRLGLDVVLLEAGTKVGGVMAFCPGMPWGAAYPQDESIGGLMQELTDRLMGMDPPMAEKRPCTLENFGPEIQYDHDAATTMMFEMLEEAGVRVFLGAVAFAPVMEGNRIAAVEFFDRRCPQRIAAKIVIDCSGDGDISAKAGVPFTLGDGQGNMMAVTLSFFMEGADWDRVFAENDPYFRRYAAKGIAEGRLHPHLAQLYLMKGFHPGTVFCNSVAIRGVDGTDPADVTRATQEGRRRCLQLAQFLRADVPGFEAAHMSQLGPTVGVRETRKLEGMYKVTGADLAAGTKFADGIVACDNPIDDVMRTSDQMTHDAMVERGGYYTIPFRSLLPKAVANLMFAGRILSADLVAFASVRGMPQCMAMGQATGTAAHLAIRDGAPVQQVDRAELVKLLSEQGVSRLLS | not soluble
2 | AHHHHHHGSKLTHVDEKGVKMVEVGHKKDMYRRAIAKGRIKLKPETIKLIREGKIEKGNVLAAAQIAGILAVKKTFDIIPLCHPIPLTGVDITFDFGEDYIEVTCEVRAIYKTGVEMEALTGVSVALLTIWDMVKAVEKDEKGQYPYTKIEEIRVVEKIKEERS | soluble
3 | GMPQTLKPDTPAGTPAAGAVAFRRQVLPQDALLVRRVVESTGFFTPEEADVAQELVDEHLMHGAACGYHFVFATEDDDMAGYACYGPTPATEGTYDLYWIAVAPHRQHSGLGRALLAEVVHDVRLTGGRLLFAETSGIRKYAPTRRFYERAGFSAEAVLKAFYRAGDDKIIYRLEVA | soluble
4 | MTAARSAPSPAGAPRPGLRERKKTRTREAIRAATYGLIRQQGYEATTVEQIAERAEVSPSTVLRYFPTREDIVLTDEYDPVMAAELAARPAGEPWSDSLRHVLRKALGLGAGEEAELIRLRTRLLAEVPAVRARMLENMSDTGRMLARAIADRTGLDPDGLEVRIVSMSLVGGLMEVSRYWAEHDHEESLAELVDRALDALENGLPALRESDRESDREGDRGGHREDRREGPRKD | soluble
5 | MAHHHHHHMNRIPAATRNAPMYATAMSQFAVCRQPWNEYISLLTKDDAQPFHTTPQEKPAYRGRKRGREGWLFGQQVQLHYHRFPDEQLFTNLTRWRMGDTVGDVAIQQFRNAQPFDIEDKDPQGFQRPAPEVYMKLNYKNPATISRFLTRTGHMYPQDIMPLNPEAVVKLRVAKAQAIRIGLYPRFGNPFWFRSQSFRPKAYQENYDPTTYSTKHTMEHFAYNWVQTDRIRQYFKGLEELHQSRRATASSGGGGVTSEHKQQSQLYALDNMSIEMHRNAPSYRADVERSIKKPTVPGLMSTKGMKKKFHNLYSSTSTKRMGFSNPTLGIKKV | not soluble
6 | GMTRRIAICAPSTPFTREDSARVIALAAAEFPDLSLSFHEQCFASEGHFAGSDALRLSAFLECANDDAFEAVWFVRGGYGANRIAEDALARLGRAASAKQYLGYSDAGTLLAALYAHRIGRSVHAPMPVDIRRPEGESAVRRTLGWLAGAREGLEPTLGAGAPAVAFNLMTLAMLCGTRLLPDLSGHVVMIEEVAEHHYAVDRLLFHVTSCLADAGIAGLRLGRVSDVPENDRPFGCSVEEMARHWCHRAGIAFLGTADIGHDVDNRIVPFGLA | soluble
7 | MAHHHHHHMADYEPEDNLEQNSTLSSESIQEDISSLLRTKLAGEQWNPAKVDGWVEDIVNSILTELAELKKPYKYIVTCVFMQRTGAALSVGFISLWDNTKDGMVHVPFENDSFHCLVTVYFLKND | not soluble
8 | MGSDKIHHHHHHMIEELAREIVKRFPRNHKETDPFRVLISTVLSQRTRDENTEKASKKLFEVYRTPQELAKAKPEDLYDLIKESGMYRQKAERIVEISRILVEKYGGRVPDSLEELLKLPGVGRKTANIVLWVGFKKPALAVDTHVHRISNRLGWVKTRTPEETEEALKKLLPEDLWGPINGSMVEFGRRICKPQNPLCEECFLKNHCEFYRRRGKGEVRNRTER | not soluble
9 | EPLRVLELYSGVGGMHHALRESCIPAQVVAAIDVNTVANEVYKYNFPHTQLLAKTIEGITLEEFDRLSFDMILMSPPCQPFTRIGRQGDMTDSRTNSFLHILDILPRLQKLPKYILLENVKGFEVSSTRDLLIQTIENCGFQYQEFLLSPTSLGIPNSRLRYFLIAKLQSEPLPFQAPGQVLMEFPKIEIHRKNQQDSDLSVKMLKDFLEDDTDVNQYLLPPKSLLRYALLLDIVQPTCRRSVCFTKGYGSYIEGTGSVLQTAEDVQVENIYKSLTNLSQEEQITKLLILKLRYFTPKEIANLLGFPPEFGFPEKITVKQRYRLLGNSLNVHVVAKLIKILYE | soluble
10 | MSMSSTVIKFRAGVCEYNEDSRLCTPIPVQGEIEIKPNEEEELGFWDFEWRPTEKPVGRELDPISLILIPGETMWVPIKSSKSGRIFALVFSSNERYFFWLQEKNSGNLPLNELSAKDKEIYNKMIGVLNNSSESDEEESNDEKQKAQDVDVSMQD | soluble
11 | MLKMSTRTEAMSDKQVRAQYTREFKLEAVRQVRAGQAIAGVAKVLGIPKASLGNGVRLAAKGALGGSGGSDKADRVSPEQMEIARLRAEVARLRMERDIAKKAAAYFAQDTLRGTPGLTQLEHHHHHH | not soluble
12 | MTAKTLIVLIGPTGVGKTELSLRIAEYFKTSIISSDSRQLYAELKIGTAAPTPEQLKRVPHYFVGTLQLTDYYSAAQYETEVMSVLEQLFQQHHVVLLTGGSMMYVDAICKGIDDIPTVDAETRELLLHKYDTEGLDNLCAELKLLDPEYYKIVDLKNPKRVIHALEICYMTGKTYTSFRTQQKKERPFHILKIGLTRDRAELYDRINRRVDQMMDEGLLEEARSVYAHRELNSLNTVGYKEIFKYLDGEWDLDFAIEKIKQNSRIYSRKQMTWFKRDEEIRWFHPEQEKEILSYLQASIKLEHHHHHH | soluble
13 | MPENLQLVIITGMSGAGKTVAVQSFEDMGYFCIDNLPPSLIPKFWELIKESGKVTKIALVIDLRSRTFFREIQDMLVELENTNFIDTTILFLDATDEELVSRYKETRRAHPMAMDGLVTEGIRKERAMLEEIKADAQLVIDTTDLSPRQLRERLNKELATRETHEFRVEMVSFGFKYGLPIDADIVMDVRFLPNPHYIDELRPLTGMDQPVYDYVMGFPETDEFYTKFIDLLRTVLPGYKKEGKSSVTIAIGCTGGQHRSVALTERVGAELKEEDYHVNITHRDRLKRKETVNRS | not soluble
14 | MNLNIETSRRIELIDITSEVKEEVRISGVREGVCIISTRHTTAGIIVNENENGLREDILNMLERLVPQGAGYRHDRIDNNADSHLKAILLGSSEALPIVKGELELGTWQSIFFAEMDGPRNRAVNLTILKTELEHHHHHH | soluble
15 | MSSFVPNKEQTRTVLIFCFHLKKTAAESHRMLVEAFGEQVPTVKTCERWFQRFKSGDFDVDDKEHGKPPKRYEDAELQALLDEDDAQTQKQLAEQLEVSQQAVSNRLREMGKIQKVGRWVPHELNERQMERRKNTCEILLSRYKRKSFLHRIVTGDEKWIFFVNPKRKKSYVDPGQPATSTARPNRFGKKTMLCVWWDQSGVIYYELLKPGETVNAARYQQQLINLNRALQRKRPEYQKRQHRVIFLHDNAPSHTARAVRDTLETLNWEVLPHAAYSPDLAPSDYHLFASMGHALAEQRFDSYESVKKWLDEWFAAKDDEFYWRGIHKLPERWEKCVASDGKYFE | soluble
16 | MTMTLVNKNRKSRDENAMAKYNEKELADTSKFLSFVLRHKPEAIGIVLDREGWADINKLILCAQKAGKRLTRALLDTVVATSDKKRFSYSSDGRCIRAVQGHSTSQVAISFAEKTPPQFLYHGTASRFLDEIKKQGLIAGDRHYVHLSADEATARKVGARHGSPVVLTVKAQEMAKRGIPFWQAENGVWLTSTVAVEFLEWSFMPTGVQKQLEHHHHHH | soluble
17 | MKKTLILGATPETNRYAYLAAERLKSHGHEFIPVGRKKGEVLGKTIINERPVIEGVDTVTLYINPQNQLSEYNYILSLKPKRVIFNPGTENEELEEILSENGIEPVIGCTLVMLSAGT | not soluble
18 | MLSIIGQKTLTIMYWTLELASKLEDAPWPATKDELIDYAQRSGAPLEVIENLQEMEDEGEIYESIEDIWPDYPSKEDFFFNEEEY | not soluble
